Experiment: soluble on expression in E. coli; label from the status in PepcDB or PDB records

Sequence | soluble on expression in E. coli
MSRVSTAPSGKPTAAHALLSRLRDHGVGKVFGVVGREAASILFDEVEGIDFVLTRHEFTAGVAADVLARITGRPQACWATLGPGMTNLSTGIATSVLDRSPVIALAAQSESHDIFPNDTHQCLDSVAIVAPMSKYAVELQRPHEITDLVDSAVNAAMTEPVGPSFISLPVDLLGSSEGIDTTVPNPPANTPAKPVGVVADGWQKAADQAAALLAEAKHPVLVVGAAAIRSGAVPAIRALAERLNIPVITTYIAKGVLPVGHELNYGAVTGYMDGILNFPALQTMFAPVDLVLTVGYDYAEDLRPSMWQKGIEKKTVRISPTVNPIPRVYRPDVDVVTDVLAFVEHFETATASFGAKQRHDIEPLRARIAEFLADPETYEDGMRVHQVIDSMNTVMEEAAEPGEGTIVSDIGFFRHYGVLFARADQPFGFLTSAGCSSFGYGIPAAIGAQMARPDQPTFLIAGDGGFHSNSSDLETIARLNLPIVTVVVNNDTNGLIELYQNIGHHRSHDPAVKFGGVDFVALAEANGVDATRATNREELLAALRKGAELGRPFLIEVPVNYDFQPGGFGALSI | soluble
MSRVVLNVDSYEGNDTPSAEIARFVVLYGKASTRKHKIWEGDGLLVCFTDSCLLKSEDERDVICRSSALKGLDQLEDGRIINIGSWSVEIQERIATGPPQKPISAQKPEIQSPMPPMTPGNSENVENRKRGGFSSPFLGIELPKPLSKRSATFVPPLIGSESSSSGGSSSSTIQEKIPPFILNEQDILDRKTTSAVTVDTRFARHLRPHQKSGIQFIFDRLRRGSGKNGGGGGAILADDMGLGKSLQTMAATWALLKGSKTAQQLANSCLIIVPSSLVNNWKAEFDKWWRLMRFPAVIALTANDITTYQSTIKLMPYLVISYDLAQRHVEKLKIIRFDVMVCDEGHKLKNLDGKLRKTLLSLEIPRRLILTGTPMQNDFEEFYSLLDFVRPSVFGSIVEFRKMCSDRPEQLNELIDECMLRRTAADVDLKHLPEKHEYILFCAASPIQKHVHSEICDYMTGDALSLIFFARQLANHPKLLLDNLREKTEKSKAHKHSPLLLAFDGAHMPRGGVKESGKLTALVDMIKCFRLLQECTVIVSNYIETLDMIQQLCEYLNFKVLRLDGKTQVPDRQKLVRTFNDHRDPSNIFLLSTKAGGVGLNLIGASRLVLFDSDWNPANDQQAMARIWRDGQVRPCHIYRLITTGTIEEKMLQRQIKKTGLGCVIDAIEVGDTIATFTDEDLKDIFTFTGSATECNTHDLCECPCDGCGMLENEMDEEDDGDDVVENDAEKIDKSGKIDKIDSDDDEEADDEELEADVTDEVVEDSQEPPEATKPAVAAAGLRTIASLAELSRWRHFSPRHADTWHHFMTNAGLSQVDTDVELTFAFYQESQY | not soluble
MSSAAQAYARTAQRTASPREIEAQALLKAAKQLQDVVTNWEEKGAIGLQEALLFNRKLWSIFVTEAMRDDNPQSIEIRQNIANIGVFVMSQSSALQIKPEVERLQALIDINRNIAAGLSGRP | not soluble
MSSDSDSDFGKEASKTPKRRITDCLFDSDDEVLESPGREELRKLLLSDYEDVGSVTIDTPKLKNRNVRLRGAGRPQKGGDDYKDYGRSEMEQFLRLVSDKPFLWHTKDSDFHRKKEKGMPAWAEIERTCNTFMGKGRTPGKTAAALFKKMATTYKSHLTRIQKAPSGSAVTPKKDLFCYAELMSFMDEDITHRAPTCSFIVGAGPDVDVLPTETSSSKKK | not soluble
MSSGLEDNLQLLGGNVTLLEQEAQKLANETKAGVYVVTTDSSTPASQMAKTYLADKVGAKNNGVVLVINMNLRKVYIWATGNLKYYLPSSRIEKTLDIVQPELTDNNYYQAVSGFFDQVSKYYQAGLEHHHHHH | not soluble
MSSISLKEIIPPQPSTQRNFTTHLSYDPTTNAIAYPCGKSAFVRCLDDGDSKVPPVVQFTGHGSSVVTTVKFSPIKGSQYLCSGDESGKVIVWGWTFDKESNSVEVNVKSEFQVLAGPISDISWDFEGRRLCVVGEGRDNFGVFISWDSGNSLGEVSGHSQRINACHLKQSRPMRSMTVGDDGSVVFYQGPPFKFSASDRTHHKQGSFVRDVEFSPDSGEFVITVGSDRKISCFDGKSGEFLKYIEDDQEPVQGGIFALSWLDSQKFATVGADATIRVWDVTTSKCVQKWTLDKQQLGNQQVGVVATGNGRIISLSLDGTLNFYELGHDEVLKTISGHNKGITALTVNPLISGSYDGRIMEWSSSSMHQDHSNLIVSLDNSKAQEYSSISWDDTLKVNGITKHEFGSQPKVASANNDGFTAVLTNDDDLLILQSFTGDIIKSVRLNSPGSAVSLSQNYVAVGLEEGNTIQVFKLSDLEVSFDLKTPLRAKPSYISISPSETYIAAGDVMGKILLYDLQSREVKTSRWAFRTSKINAISWKPAEKGANEEEIEEDLVATGSLDTNIFIYSVKRPMKIIKALNAHKDGVNNLLWETPSTLVSSGADACIKRWNVVLE | soluble
MSSKWITSLFKSVVLTAALVTPFAASAFTEGTDYMVLEKPIPNADKTLIKVFSYACPFCYKYDKAVTGPVSDKVADLVTFTPFHLETKGEYGKQASEVFAVLIAKDKAAGISLFDAKSQFKKAKFAWYAAYHDKKERWSDGKDPAAFIKTGLDAAGMSQADFEAALKDPAVQETLEKWKAAYDVAKIQGVPAYVVNGKYLIYTKNIKSIDSMAELVRELATKK | not soluble
MSSLTDKTRNGALKRNLLRQMLKASVFKFGEFQLKSGQISPIYIDLRECFGHPGLLMLISEAISKQVEISEVQYAGVLGIPYAALPYASVAAGNYLKKPLLIVRKEAKSYGTKKLIEGLYQPNDRLILIEDVVTTGGSILDVVKVLHTENLVASDVFCILDREQGGRQKLQDAGVTLHSLLDMQTVLTFLYSTGAIGDEQWHGIVQALNLPYTSPTKLEINSELENLSSLPYVENVRTPLAERESLTESALIKKILGIMRRKKSNLCLAVDYTTVEQCLQMIELAGPFVLAIKLHADAITDFNEEFTRKLTTMANDMDFIIFEDRKFGDTGNTNLLQLTGAQKIANWADVVTVHAVQGSDSIAGVFRKLAKDPTYRLSGVLLIAQLSTKGSLTALEGYTETAVKIANENRDVISGFITQTRVSACSDLLNWTPGVNLDAKSDSAGQQWRGVDEAIEVQQNDIIIVGRGVTSSSEPVQQLKRYRQIAWDALTRSDDSI | not soluble
MSSRKQGSQPRGQQSAEEENFKKPTRSNMQRSKMRGASSGKKTAGPQQKNLEPALPGRWGGRSAENPPSGSVRKTRKNKQKTPGNGDGGSTSEAPQPPRKKRARADPTVESEEAFKNRMEVKVKIPEELKPWLVEDWDLVTRQKQLFQLPAKKNVDAILEEYANCKKSQGNVDNKEYAVNEVVAGIKEYFNVMLGTQLLYKFERPQYAEILLAHPDAPMSQVYGAPHLLRLFVRIGAMLAYTPLDEKSLALLLGYLHDFLKYLAKNSASLFTASDYKVASAEYHRKALLEHHHHHH | not soluble
MSSSDAFWRMFANKNKGKSNTRSAFQVVKEEQPSTSTEPDDKKPLHHEIAGEMIKNPAKGKRKRVQIKNDEYEQLMMLGVPVRVPRGLSLYSTQKLMIVRILTALKNSQNVLGESPTGSGKTMALLASTCAWLKQYIDEKRESKEKCEIHGFSGKTQVVFTNDIGIPLESKVYEEPPEEEEFIEPVPVKNDKLFEAQWEHDFTPHTPGETPPVTLKEELEPVKKPEPVETKCTCLPRVRIYYGTRTHKQIAQVVKEFSRLPYAKILKHTILASREQSCINPAARKHADISQYCKEVNSAHSIGCSFKSAMKPRFEKALPLRDHLERNGTVVFDMEKIVETLAISYPQLCPYFSTNRILTQDADIIFCPFSYLVDPLIRNSSDVQIRNSIVILDEAHNIEDTCREAASFSFTEKELDDSILSLRIKRKAVDTELDKTGIEEKLLHIPDREVHLKEFRGHLLYLEHLILEMLRWIRQVSTEAKTPARGGQDGVKTCTISSANLFTSLTDPENGVDLFTPPLTPKHAAVAASFSAITKHNEPEMQYFDAFKPSSTAIVCIEKWLYFQSYFGNQQYQSTYRLNISIEPINQNGRFNHTFDADVSMSTSFGNPRPTTTRSSAGPRNMQYKEENAWLADAAADGDDWKDPSMSETGHKPISEGCKTTISLWCMSPALSFFDAFNETRSIVLASGTLCPMDTLKTELGMEFKQQVEGDQVINKDNIFAAVLPIGPFGNRIQCTYRNTSDPESSFYCELGAIIKYVCSNVPAGILCFLPSYRVLDQLKQCMIRNSTMRQIEMKKVVLYEPRRSSELTSVMDQFDAAIFDPSRFGANINGSLMFAVFRGKVSEGIDFADDRARVVISVGIPYPNAMDDQVNAKKLYNDQNSKEKGILTGDEWYTTQAYRALNQALGRCLRHKNDWGAMLMIDERLERQTGNLVGGASSARVSKWIRAQLKSYPSFKEFNANFREFIQRRHAVEKAKKENFCE | not soluble
MSSSESPAGIAQIGVTGLAVMGSNIARNFARHGYTVAVHNRSVAKTDALLKEHSSDGKFVRSETIPEFLAALEKPRRVLIMVKAGEATDADAVINELADAMEPGDIIIDGGNALYTDTMRREKAMRERGLHFVGAGISGGEEGALNGPSIMPGGPAESYQSLGPLLEEISAHVDGVPCCTHIGPDGSGHFVKMVHNGIEYSDMQLIGEAYQLMRDGLGLTAPAIADVFTEWNNGDLDSYLVEITAEVLRQTDAKTGKPLVDVIVDRAEQKGTGRWTVKSALDLGVPVTGIAEAVFARALSGSVGQRSAASGLASGKLGEQPADPATFTEDVRQALYASKIVAYAQGFNQIQAGSAEFGWDITPGDLATIWRGGCIIRAKFLNHIKEAFDASPNLASLIVAPYFRGAVESAIDSWRRVVSTAAQLGIPTPGFSSALSYYDALRTARLPAALTQAQRDFFGAHTYGRIDEPGKFHTLWSSDRTEVPV | soluble
MSSTKRPASRADEITQELVRMIQLADARRIAKLPTEMELAAQLGISRPVIRESLSRLESLNMVTRRQGSGLYIVAPEKRSPEALVLLEQSAPLSPRSIAEAMSVRAILELETGRLAALNHRQVDLDRMAAEIERLAATGARGLEAAEADEAFHRALSDAAGNVTLSQVLDLFLRLSWRRRVEYFSQPKLGKQSIIEHQEILNAVASGDPDAVSTAIRTHLNSAERFWDSKYVKKKS | not soluble
MSSVKDTMTTQVATVSPNQTIQEAASLMKQHNVGAIPVVEQGVLKGMLTDRDIALRTTAQGRDGQTPVSEVMSTELVSGNPNMSLEDASQLMAQHQIRRLPIVDQNNLVGIVALGDLAVNQMSNESAGSALTNISHQNIH | not soluble
MSTARFADPDQIRAGFSRAMSQMYQHEVPLYGTLMELVSEVNAQVMSRDSQVLNSLRQTGEIQRLDMERHGAIRVGTAQELATLARLFAVMGMQPVGYYDLTAAGVPVHSTAFRAVHEQALQVSPFRVFTSLLRLELIESDSLREFASRVLAKRTIFTPGALALIEKHEADGGLSEPDAAEFIQQALETFRWHHTATVSLDEYRQLNAQHRLIADVVAFRGPHINHLTPRTLDIDAVQSGMPGKGITPKAVVEGPPPRQCPILLRQTSFKALEEPISFIGQGGSQSGSHSARFGEIEQRGAALTPKGRELYDRLLNEARDALGEFPNEANAVRYAGLLEKAFQAFPDSHDEMRAQGLAYFRYFPTDTGVAVRVSGTLEQLIEAGHVRFEPLAYEDFLPVSAAGIFQSNLGDNAQAHYAANSNRQDFERALGRGTLDELALYADTQRRSLEDCAEVLGLNESLEHHHHHH | not soluble
MSTDAFYSTAFPTIPGTPNLLGYTAYSPQSIFNDSRPASSVNNTPSTSFNSSIHSRNRSIAMLHSISHILSNDDSLGSTTESSTPSTPEIHPSNAPAKKTIPLVLISDTDEECDKKSRKRRIRSKSSKKSRGIRKSRKHEASDYRKKIMLGTFEGRKIVLKLMK | not soluble
MSTFSLLRLPQKTLKNVILQMGHIELICTSLLSNKTKHFIREFCIFKASRFSIELNQSVQFKMFNNGRWSEYSFKNGMICITSFGIIQITMTFRTPQFNAGSWFNHFLCVLSPSKIESVTVTDAFDELRFQLVKKFLEKIQFMVLWIRTTSATSHMVRLFSEVLPVDQFWLSQDDRLNSSQFSALRPVLSKELETIFIDNRMPLNDLLITCSTAIHIIKSPLTDKEINVFLKHWMTGLKPELEHIYIEKSGVFNQTQLLDGINHDAPTDRKFKMYGNDAFRGIDLHLGQGIKATLVYENDFFHSKIHIASHNSKYISFE | not soluble

From the DeepSol protein solubility set
